In publication PMC10010325:

Legend:
[1] = target: human CLDN18.2 (Claudin18.2), P56856-2; test: not named in legend (MFI read-out, antibody titration on CLDN18.2); conditions: value read at the highest antibody concentration, log10(µg/mL) about 1.5; read off a plot
[2] = target: Fcγ receptor type IIIA (CD16A), low affinity F158 (UniProt P08637); test: not named in legend (luminescence read-out, antibody titration on CD16A F158); conditions: value read at the highest antibody concentration, log10(µg/mL) about -1; parent: est. 4400; read off a plot
UniProt P08637, sequence (P08637 17-254): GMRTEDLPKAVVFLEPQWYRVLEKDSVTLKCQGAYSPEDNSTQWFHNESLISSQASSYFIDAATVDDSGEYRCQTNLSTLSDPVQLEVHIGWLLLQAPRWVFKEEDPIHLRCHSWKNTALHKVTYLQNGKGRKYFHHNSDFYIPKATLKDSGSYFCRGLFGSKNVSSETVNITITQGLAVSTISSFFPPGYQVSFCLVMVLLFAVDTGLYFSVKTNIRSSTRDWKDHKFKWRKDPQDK

Substance: ZL-1211 wild-type (WT) Fc Fc mutations for enhanced ADCC (substitutions not printed)
- response [1]: 35000 MFI
- response [2]: 5000 luminescence
